Data reported in PMC10654636.
pKd: −log10 of the molar value.

Key:
Assay in all cases: BLI; biotinylated recombinant human FcγR loaded on SAX (streptavidin) biosensors, antibody in serial dilutions in solution; kinetic buffer 1% casein, 0.2% Tween20, 1x PBS pH 7.4; 30°C; Octet HTX; global fit, 1:1 Langmuir model
[1] = target: human FcγRI (CD64), biotinylated recombinant protein (human) (UniProt P12314)
[2] = target: human FcγRIIIa F158 (CD16 F158), biotinylated recombinant protein (human) (UniProt P08637)
[3] = target: human FcγRIIa H131 (CD32a H131), biotinylated recombinant protein (human) (UniProt P12318)
[4] = target: human FcγRIIb (CD32b), biotinylated recombinant protein (human) (UniProt P31994)
[5] = target: human FcγRIIIa V158 (CD16 V158), biotinylated recombinant protein (human)
[6] = target: human FcγRIIa R131 (CD32a R131), biotinylated recombinant protein (human)

Chain of nonfucosylated anti-TIGIT mAb, human IgG1 (SEA-TGT) (antibody; other documents disagree on this pair) (VH): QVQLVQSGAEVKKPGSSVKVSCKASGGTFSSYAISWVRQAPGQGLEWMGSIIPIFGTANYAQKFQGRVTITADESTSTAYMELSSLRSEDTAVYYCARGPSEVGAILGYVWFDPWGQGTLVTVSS
Chain of nonfucosylated anti-TIGIT mAb, human IgG1 (SEA-TGT) (antibody; other documents disagree on this pair) (VL): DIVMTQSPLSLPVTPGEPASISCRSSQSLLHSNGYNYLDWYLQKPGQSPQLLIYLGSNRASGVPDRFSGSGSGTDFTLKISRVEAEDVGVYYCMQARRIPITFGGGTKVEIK
Chain of nonfucosylated anti-TIGIT mAb, human IgG1 (SEA-TGT) (antibody) (VH): as the sequence (VH) above
Chain of nonfucosylated anti-TIGIT mAb, human IgG1 (SEA-TGT) (antibody) (VL): as the sequence (VL) above

**Q.** How did the pKd [1] turn out when “nonfucosylated anti-TIGIT mAb, human IgG1 (SEA-TGT) (antibody; other documents disagree on this pair)” was run?
**A.** 8.72

**Q.** What about the pKd [2] of the same substance?
**A.** 6.31

**Q.** And the pKd [3]?
**A.** 5.49

**Q.** And the pKd [4]?
**A.** 4.72

**Q.** With “anti-TIGIT mAb, human IgG1 S239D/A330L/I332E (DLE-TGT) (antibody)” as the substance, how does the pKd [5] read?
**A.** 7.22

**Q.** And the pKd [6]?
**A.** 5.81

**Q.** With “anti-TIGIT mAb, human IgG1 S239D/A330L/I332E (DLE-TGT) (antibody; other documents disagree on this pair)” as the substance, how does the pKd [3] read?
**A.** 5.79

**Q.** What about the pKd [4] of the same substance?
**A.** 5.50

**Q.** “nonfucosylated anti-TIGIT mAb, human IgG1 (SEA-TGT) (antibody)” was tested. Which pKd [5] did it give?
**A.** 7.05

**Q.** What about the pKd [6] of the same substance?
**A.** 5.44

**Q.** With “Fc-muted anti-TIGIT mAb, human IgG1 L234A/L235A/P329G (LALA-TGT) (antibody; other documents disagree on this pair)” as the substance, how does the pKd [1] read?
**A.** 4.59
